Columns and labels:
[1] = target: T1, CXCR4 StaR nanodiscs; experiment: SPR (Biacore T200), IgG4-PE antibody captured by anti-IgG on CM5, CXCR4 StaR nanodiscs at 250 nM as analyte, 25 C, 1:1 model; N = 1
T1 construct: Purified receptor in lipid-protein nanodiscs; also called StaR CXCR4; thermostabilised CXCR4
Method: Anti-IgG antibodies were immobilised on chip CM5 (GE Healthcare) by amine coupling. […] A channel with no anti-CXCR4 antibodies captured was used as a reference. […] The blank-subtracted sensorgrams were fitted to the 1:1 interaction model using the Biacore T200 evaluation software. The assay was run at 25° C. using 0.01 M HEPES pH 7.4, 0.15 M NaCl as running buffer.

[2] = target: T2, human CXCR4 (cell-expressed) (human, UniProt P61073 1-352); experiment: cell-based or functional assay
[3] = target: T2, human CXCR4 (cell-expressed); experiment: cell-based or functional assay; remark: listed apart in the source
[4] = target: T3, cynomolgus CXCR4 (cynomolgus monkey, UniProt Q28474 1-352); experiment: flow cytometry on CHO-S cells expressing cynomolgus CXCR4
T3 construct: also called cyno CXCR4; cynomolgus monkey CXCR4
Method: Cynomolgus monkey CXCR4 expressing CHO-S cells were plated at 100 uL/well of cells at 1 million of cells/mL (0.1 million of cells/well) into a 96 well V-bottom plate (Greiner). Plates were centrifuged at 300×g for 3 min at 4° C. and supernatant discarded. […] Primary antibody dilutions were added to cells (50 μL/well) and cell pellets resuspended by pipetting. Plates was incubated for 1 h at 4° C. 100 μL/well of PBS, was added and plates centrifuged at 300×g for 3 min at 4° C. and supernatant discarded. This step was repeated twice. […] Cells were resuspended by pipetting. Plates were incubated for 1 h at 4° C. 100 μL/well PBS, was added and plates centrifuged at 300×g for 3 min at 4° C. and supernatant discarded. This step was repeated twice. Finally, cells were resuspended in 100 μL/well of PBS and analysed on CytoFLEX (Beckman Coulter).
Binding of antibodies to cynomolgus CXCR4 expressed on CHO-S cells was analysed by gating the main cell population using forward and side scatter (Flow Jo, Flow Jo LLC) to allow for doublet discrimination. […] EC₅₀ values were calculated by transforming the data and fitting a 4-parameter logistic regression curve to each antibody titration.

[5] = target: T4, human CXCR7 (human, UniProt P25106 1-362); experiment: flow cytometry on CHO-S cells expressing human CXCR7, Alexa Fluor 647 secondary antibody, GeoMean (647 nm)
T4 construct: Expressed on CHO-S cells
Method: CXCR7 expressing CHO-S cells were plated at 100 μL/well of cells at 1 million of cells/mL (0.1 million of cells/well) into a 96 well V-bottom plate (Greiner). Plates were centrifuged at 300×g for 3 min at 4° C. and supernatant discarded. […] Primary antibody dilutions were added to cells (100 μL/well) and cell pellets resuspended by pipetting. Plate was incubated for 1 h at 4° C. 100 μL/well of PBS, was added and plates centrifuged at 300×g for 3 min at 4° C. and supernatant discarded. This step was repeated twice. […] Cells were resuspended by pipetting. Plate was incubated for 1 h at 4° C. 100 μL/well of PBS, was added and plates centrifuged at 300×g for 3 min at 4° C. and supernatant discarded. This step was repeated twice. Finally, cells were resuspended in 100 μL/well of PBS and analysed on CytoFLEX (Beckman Coulter).
Binding of antibodies to CXCR7 expressed on CHO-S cells was analysed by gating the main cell population using forward and side scatter (Flow Jo, Flow Jo LLC) to allow for doublet discrimination.

[6] = target: T5, terbium-labelled SNAP-CXCR4 on HEK-293 cells (Cisbio C1TT1CXCR4) (human, UniProt P61072 1-352 (Pan troglodytes entry), terbium label on the SNAP tag); experiment: TR-FRET (Tag-lite) competition with AlexaFluor 647-CXCL12 on terbium-labelled SNAP-CXCR4 HEK-293 cells
T5 construct: Bought assay-ready cells; also called CXCR4 expressing cells; not shown: SNAP tag

[7] = target: T2, human CXCR4 (cell-expressed); experiment: cell-based or functional assay; remark: listed apart in the source
[8] = target: T3, cynomolgus CXCR4; experiment: cell-based or functional assay
[9] = target: T2, human CXCR4 (cell-expressed); experiment: cell-based or functional assay; remark: listed apart in the source
[10] = target: T2, human CXCR4 (cell-expressed); experiment: cell-based or functional assay; remark: listed apart in the source
[11] = target: T2, human CXCR4 (cell-expressed); experiment: cell-based or functional assay; remark: listed apart in the source
[12] = target: T2, human CXCR4 (cell-expressed); experiment: cell-based or functional assay; remark: listed apart in the source
[13] = target: T6, biotinylated CXCR4-virus like particle (Integral Molecular, Lot INT-1793B) (human, UniProt P61073 1-352, VLP biotinylated, sites not stated); experiment: SPR (Biacore 8K), biotinylated CXCR4 VLP captured on SA chip, Fab as analyte, 25 C, 1:1 model
T6 construct: also called hCXCR4 VLP; CXCR4 VLP
T6 sequence (P61073 whole entry): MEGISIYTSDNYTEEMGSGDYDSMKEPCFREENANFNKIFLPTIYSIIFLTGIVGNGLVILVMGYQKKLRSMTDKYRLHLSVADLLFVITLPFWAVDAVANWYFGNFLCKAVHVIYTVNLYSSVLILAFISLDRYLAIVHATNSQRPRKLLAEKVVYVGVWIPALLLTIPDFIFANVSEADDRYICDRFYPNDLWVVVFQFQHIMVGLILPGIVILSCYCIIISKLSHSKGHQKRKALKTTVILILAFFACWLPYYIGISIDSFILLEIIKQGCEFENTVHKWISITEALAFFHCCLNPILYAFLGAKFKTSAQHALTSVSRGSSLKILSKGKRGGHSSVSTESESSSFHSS

T3 sequence (Q28474 whole entry): as the sequence (P61073 whole entry) above, with M24I, N35H, K38R, R146K, N176S counted along it
T5 sequence (P61072 whole entry): as the sequence (P61073 whole entry) above
T2 sequence (P61073 whole entry): as above
T4 sequence (P25106 whole entry): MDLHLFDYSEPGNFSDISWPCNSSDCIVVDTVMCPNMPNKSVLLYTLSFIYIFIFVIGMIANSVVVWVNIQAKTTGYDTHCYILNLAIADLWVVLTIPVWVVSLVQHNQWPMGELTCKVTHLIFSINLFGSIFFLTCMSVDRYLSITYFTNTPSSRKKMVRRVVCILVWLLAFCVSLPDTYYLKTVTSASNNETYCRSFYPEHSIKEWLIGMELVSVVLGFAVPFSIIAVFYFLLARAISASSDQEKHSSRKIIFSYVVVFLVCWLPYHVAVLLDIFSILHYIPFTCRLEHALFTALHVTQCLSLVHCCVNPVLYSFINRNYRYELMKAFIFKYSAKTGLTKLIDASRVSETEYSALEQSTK

Row | Binder | Kd [1] [nM] | koff [1] [s⁻¹] | kon [1] [M⁻¹ s⁻¹] | % Max Inhibition, cAMP HTRF assay, CXCR4 BacMam HEK-293 cells [2] [%] | IC50, cAMP HTRF assay, CXCR4 BacMam HEK-293 cells, 5.5 nM CXCL12 [2] [nM] | % of max migration at 120 nM Ab, primary naïve T-cell trans-well migration [3] [%] | EC50 [4] [nM] | binding result [5] | % Max Inhibition [6] [%] | IC50 [6] [nM] | IC50 of antibody in presence of 30 nM CXCL12, human T-cell transwell chemotaxis [7] | % Maximum Inhibition, cAMP HTRF assay, cyno CXCR4 BacMam HEK-293 cells [8] [%] | IC50, cAMP HTRF assay, cyno CXCR4 BacMam HEK-293 cells [8] [nM] | % effect (remaining % of CXCL12 response), DMR assay, human T-cells [9] [%] | IC50, label-free DMR assay, isolated human T-cells, EC80 CXCL12 [9] [nM] | % Max Inhibition, beta-arrestin reporter assay, Tango CXCR4-bla U2OS cells [10] [%] | IC50, beta-arrestin reporter assay, Tango CXCR4-bla U2OS cells, 30 nM CXCL12 [10] [nM] | IC50 n = 1, Jurkat chemotaxis towards 30 nM CXCL12 (IncuCyte) [11] [nM] | IC50 n = 2, Jurkat chemotaxis towards 30 nM CXCL12 (IncuCyte) [11] [nM] | IC50 n = 3, Jurkat chemotaxis towards 30 nM CXCL12 (IncuCyte) [11] [nM] | further results
1 | CL-82458 (antibody, human IgG4 S228P, kappa, V domains shown, Tested in human IgG4-PE format; also called CL-82458 (IgG4-PE format)) VH: EVQLVESGGDLVQPGGSLRLSCAASGFTFYSYAMNWVRQAPGKGLKWVSGISGSGDITYYADSVKGRFTISRDNSKNTLYLQMHSLRPEDTAIYYCAKGQLERRYYKYYGMDVWGQGTTVTVSS VL: DIQMTQSPSSLSASVGDRVTITCRANQGIRNDLGWYQQKPGKAPKRLIYGASSLKSGVPSRFSGSGSGTEFTLTISSLQPEDFATYYCLQQNSYPLTFGGGTKVEIKR | 7.5 | 0.00046 | 61000 | 88 | 40 | 17.6 | 2.2 | no binding (tested: log(M) about -6.9 (about 1.2e-7 M)) | 99 | 0.79 | 0.26 not printed (nM assumed) | 78 | 2 | 2 | 12.1 | 102 | 0.31 | 2.18 | 3.43 | 1.66 | Mean IC50, Jurkat chemotaxis towards 30 nM CXCL12 (IncuCyte) [11]: 2.42 nM; Max Signal (Total Overlap Object Area), internalisation on Ramos cells, live-cell imaging [12]: 20800 µm^2 per image
2 | CL-82458 Fab fragment (Fab, V domains shown, Purified Fab fragment) VH: EVQLVESGGDLVQPGGSLRLSCAASGFTFYSYAMNWVRQAPGKGLKWVSGISGSGDITYYADSVKGRFTISRDNSKNTLYLQMHSLRPEDTAIYYCAKGQLERRYYKYYGMDVWGQGTTVTVSS VL: DIQMTQSPSSLSASVGDRVTITCRANQGIRNDLGWYQQKPGKAPKRLIYGASSLKSGVPSRFSGSGSGTEFTLTISSLQPEDFATYYCLQQNSYPLTFGGGTKVEIK |  |  |  |  |  |  |  |  |  |  |  |  |  |  |  |  |  |  |  |  | Kd [13]: 1.26 nM; koff [13]: 0.00111 s⁻¹; kon [13]: 887000 M⁻¹ s⁻¹
3 | CL-83083 (antibody, human IgG4 S228P, lambda, Tested in human IgG4-PE format; lambda light chain; also called CL-83083 (IgG4-PE format)) heavy: not shown light: QAGLTQPPSVSKGLRQTATLTCTGNSNNVGNLGAAWLQQHQGHPPKLLSYRNNNRPSGISERFFASRSGNTASLTITGLQPEDEADYYCSAWDSSLSAWVFGGGTKLTVLGQPKAAPSVTLFPPSSEELQANKATLVCLISDFSPGAVTVAWKADSSPVKAGVETTTPSKQSNNKYAASSYLSLTPEQWKSHKSYSCQVTHEGSTVKKTVAPTECS | 7.1 | 0.00097 | 140000 | 80 | 36 | 25.7 | 11 | no binding (tested: log(M) about -6.9 (about 1.2e-7 M)) | 96 | 1.74 | 0.35 not printed (nM assumed) | 84 | 11.8 | 5.1 | 3.58 | 98.9 | 0.43 | 0.47 | 0.43 | 0.34 | IC50, primary naïve T-cell trans-well migration [3]: 1.55 nM; Mean IC50, Jurkat chemotaxis towards 30 nM CXCL12 (IncuCyte) [11]: 0.41 nM; Max Signal (Total Overlap Object Area), internalisation on Ramos cells, live-cell imaging [12]: 9670 µm^2 per image
4 | CL-83083-2 (antibody, human IgG4 S228P, lambda, Same variable domains as CL-83083, different lambda constant region; tested in human IgG4-PE format; also called CL-83083-2 (IgG4-PE format)) heavy: not shown light: QAGLTQPPSVSKGLRQTATLTCTGNSNNVGNLGAAWLQQHQGHPPKLLSYRNNNRPSGISERFFASRSGNTASLTITGLQPEDEADYYCSAWDSSLSAWVFGGGTKLTVLGQPKAAPSVTLFPPSSEELQANKATLVCLISDFYPGAVTVAWKADSSPVKAGVETTTPSKQSNNKYAASSYLSLTPEQWKSHKSYSCQVTHEGSTVEKTVAPTECS |  |  |  | 93 | 44 |  |  |  | 97 | 3.92 |  |  |  | 4.4 | 3.98 | 96.9 | 0.79 |  |  |  | 

From patent publication US20240294651A1 (KYMAB, published 2024)
